Tests used:
[1] = test system: CC(=O)CC(=O)SCCNC(=O)CCNC(=O)[C@H](O)C(C)(C)COP(=O)(O)OP(=O)(O)OC[C@H]1O[C@@H](n2cnc3c(N)ncnc32)[C@H](O)[C@@H]1OP(=O)(O)O; assay: purified protein; conditions: 0.1 M Tris-HCl pH 8.0, 2 mM DTNB, 2 µM enzyme, substrate up to 1 mM
[2] = test system: CCCC(=O)Oc1ccc2c(C)cc(=O)oc2c1; assay: purified protein; conditions: 50 mM Tricine, 0.01% Triton X-100; 2 µM enzyme; substrate up to 8 µM

Substance: PqsE (Pseudomonas aeruginosa UCBPP-PA14)
- Km [1]: 3200 ± 200 µM
- kcat [1]: 0.438 ± 0.05 s⁻¹
- kcat/Km [1]: 140 M⁻¹ s⁻¹
- Km [2]: 8.1 ± 0.1 µM
- kcat [2]: 0.0197 ± 0.09 s⁻¹
- kcat/Km [2]: 2400 M⁻¹ s⁻¹

Reference: article PMC12077149, “Evolution of PqsE as a Pseudomonas aeruginosa-specific regulator of LuxR-type receptors: insights from Pseudomonas and Burkholderia” (mBio, 2025)
